Test results: patent US9658208B2, “Methods and G proteins for screening and identifying ligands of G protein-coupled receptors” (Fred Hutchinson Cancer Research Center, priority 2011, dated 2017)

How the values were obtained:
[1] = system: nine GPCRs that do not bind to Gαs (serotonin 1b, neuropeptide Y1, leukotriene B4, dopamine D4, GNRH, UDP, calcium-sensing, T1R2/T1R3); test: CRE-SEAP reporter gene assay, coupling of chimeric G proteins with a variety of GPCRs; format: cell-based; conditions: HEK-293 cells, GPCR ligand 48 hours
Description: (§1) The GPCRs examined were those that couple with Gαi/Gαo subunits (serotonin 1b, neuropeptide Y1, leukotriene B4, and dopamine D4), Gαq (GNRH, UDP, and calcium-sensing receptors), and the orphan mammalian sweet taste receptor complex (T1R2 and T1R3) with unknown coupling preference. The Gαs-based chimeric G proteins examined in this example were Gαs-Gαi-5, Gαs-Gαt-13 (SEQ ID NO: 3), Gαs-Gαo-13 (SEQ ID NO: 4), Gαs-Gαi-13 (SEQ ID NO: 5), Gαs-Gαz-6 (SEQ ID NO: 18), Gαs-Gα15-13 (SEQ ID NO: 7), Gαs-Gαk-5 (SEQ ID NO: 2), and Gαs-Gαq-13 (SEQ ID NO: 8). The chimeric G protein constructs were prepared as described herein. For the coupling assay, HEK-293 cells were cotransfected with each of the Gαs-based chimeric G protein constructs of interest together with the CRE-SEAP reporter gene construct and a cDNA encoding the GPCR to be tested. The transfected cells were cultured in the presence or absence of a GPCR ligand and then assayed for SEAP activity.
Chimeric G protein cloning: An insert containing rat Gαs cDNA was cut out using the restriction enzymes SaII and HinDIII, and ligated into pcDNA3.1(−) cut with XhoI and HinDIII. The chimeric G proteins with the desired C-terminal amino acid substitutions from the Gαi, Gαt, Gαo, Gαz, Gα15, Gαk, and Gαq were prepared by PCR using Gαs as a template. More specifically, Gαs was PCR amplified between an internal EcoRI site and the stop codon, with a 3′ HinDIII placed immediately after the stop codon. A different 3′ oligonucleotide was used for each Gαs chimera and contained a 39 bp sequence that encoded the substituted amino acids at the C-terminus selected from the donor Gα subunit.
GPCR cloning: Mouse 5-HT1B, mouse dopamine D4, human GNRH, and human neuropeptide Y1 receptors were cloned by PCR from cDNA templates (ATCC) and ligated into pcDNA 3.1(−) (Invitrogen) for expression in mammalian cells. […]
(§2) Following transfection, the cells were maintained for 48 hours in 200 ul serum free media containing GPCR ligand. […] Fluorescence was then measured using a CytoFluor 4000 multi well plate reader (Applied Biosystems).

dopamine D4 receptor = target: T1, dopamine D4 receptor (Mus musculus, UniProt P51436); test: CRE-SEAP reporter gene assay, coupling with dopamine D4; format: cell-based; conditions: HEK-293 cells, 1 uM dopamine
T1 construct: expressed in transfected cells; host or cells: HEK-293
T1 sequence (P51436 1-387): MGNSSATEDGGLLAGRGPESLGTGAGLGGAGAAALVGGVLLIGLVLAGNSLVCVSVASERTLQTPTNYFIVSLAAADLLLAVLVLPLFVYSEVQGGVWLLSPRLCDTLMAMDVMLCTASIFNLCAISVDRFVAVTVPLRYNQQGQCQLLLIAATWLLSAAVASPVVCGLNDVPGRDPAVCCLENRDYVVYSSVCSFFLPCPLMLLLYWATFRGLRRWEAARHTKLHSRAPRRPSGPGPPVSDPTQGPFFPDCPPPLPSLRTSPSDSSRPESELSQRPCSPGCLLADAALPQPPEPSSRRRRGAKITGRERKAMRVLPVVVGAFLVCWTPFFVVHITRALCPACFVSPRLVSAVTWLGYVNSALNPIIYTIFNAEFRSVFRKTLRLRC
Description: as §1
Chimeric G protein cloning: An insert containing rat Gαs cDNA was cut out using the restriction enzymes SaII and HinDIII, and ligated into pcDNA3.1(−) cut with XhoI and HinDIII. […]
as §2

B1: Gαs-Gαt-13: Gαs-based chimeric G protein, final 13 C-terminal amino acids substituted with those of Gαt (protein)
chain: MGCLGNSKTEDQRNEEKAQREANKKIEKQLQKDKQVYRATHRLLLLGAGESGKSTIVKQMRILHVNGFNGEGGEEDVPDYASNSDGEKATKVQDIKNNLKEAIETIVAAMSNLVPPVELANPENQFRVDYILSVMNVPNFDFPPEFYEHAKALWEDEGVRACYERSNEYQLIDCAQYFLDKIDVIKQADYVPSDQDLLRCRVLTSGIFETKFQVDKVNFHMFDVGGQRDERRKWIQCFNDVTAIIFVVASSSYNMVIREDNQTNRLQEALNLFKSIWNNRWLRTISVILFLNKQDLLAEKVLAGKSKIEDYFPEFARYTTPEDATPEPGEDPRVTRAKYFIRDEFLRISTASGDGRHYCYPHFTCAVDTENIRRVFNDCRDIIIKENLKDCGLF
modifications: Chimeric protein
notes: Gαs-based chimeric G protein, final 13 C-terminal amino acids substituted with those of Gαt
GPCRs tested that coupled to the chimera [1]: All but one | coupling with dopamine D4 receptor (dopamine D4 receptor): did not couple
